# Source: US20250134019A1, “TRIKETONE DIOXYGENASE VARIANTS FOR HERBICIDE TOLERANCE” (Monsanto Technology LLC, priority 2022, published 2025)
# What was measured:
# [1] = tested on: transgenic soybean plants; experiment: Mesotrione tolerance assay of Os.TDO transgenic soybean events (Construct 32); assay type: in vivo; settings: for injury rate: sprayed at V1, rated 13 days after treatment
# Description: Mesotrione herbicide rate is expressed as grams active ingredient per hectare (g a.i./ha); 1X commercial rate=105 g a.i./ha. […] Plants at V1 growth stage were sprayed with mesotrione (in Callisto®, Syngenta in 1% crop oil) at 1X, 2X, 4X, 8X, and 16X of commercial rate (equivalent to 105, 210, 420, 840, and 1680 g a.i./ha, respectively). Crop injury ratings were taken 13 days after mesotrione treatment.
# Os.TDO transgenic event-125 and wild-type control plants were sprayed with 2X of commercial rate of mesotrione (Callisto, 210 g a.i./ha), tembotrione (Laudis, 184 g a.i./ha) and sulcotrione (Sulcogan, 660 g a.i./ha). Each bar represents the mean of injury rating of 8 reps +/−SE. * indicates significant difference vs corresponding control at p<0.01.
# The Os.TDO sequence was cloned into a set of binary vectors using standard cloning methods known in the art with its expression driven by different constitutive promoters and different 3′UTRs. Transgenic soybean plants comprising these constructs were developed using an Agrobacterium-mediated transformation system as described in Larue et al. (2020). The copy number of the transgene was determined via a Taqman assay and events with a single copy of the T-DNA insertion were selected for evaluation of mesotrione tolerance. Briefly, R2 and later generation homozygous lines of three soybean transgenic events derived from Construct 32 were selected for a mesotrione tolerance greenhouse assay. Construct 32 contained two expression cassettes between the T-DNA borders: one for expression of Os.TDO and the other for expression of a selectable marker. The Os.TDO cassette utilized the cauliflower mosaic virus (CaMV) 35S promotor and the 5′ UTR of HSP70 from petunia to drive expression of Os.TDO, followed by the 3′ UTR of the nopaline synthase (nos) gene from the T-DNA region of the Ti plasmid of Agrobacterium tumefaciens, which functions to direct polyadenylation of the mRNA. The selectable marker cassette conferring spectinomycin and streptomycin resistance comprises the promoter, intron, and leader sequences from the Arabidopsis thaliana actin 7 gene, the transit peptide region of Arabidopsis thaliana EPSPS, the coding region of the Tn7 adenylyltransferase (AAD (3″)) gene from E. coli, and the 3′ non-translated region from the Agrobacterium tumefaciens nopaline synthase gene.
# Each plant was grown in a 3.5″ pot with soybean potting media in a growth chamber under conditions of 28° C./24° C. (light/dark) and a photoperiod of 16 hr light at 700 μE/8 hr dark, and fertilized with Peters general purpose fertilizer. Eight plants at V1 growth stage were sprayed with mesotrione (in Callisto®, Syngenta in 1% crop oil) at 1X, 2X, 4X, 8X, and 16X of commercial rate (equivalent to 105, 210, 420, 840, and 1680 g active ingredient/ha, respectively). Crop injury ratings were taken 13 days after mesotrione treatment.
# [2] = Specific activity of purified TDO proteins, second hydroxylation of mesotrione; assay type: biochemical; settings: purified His6-tagged protein from E. coli, FIG. 8
# Description: Activity was expressed as nmol/min/mg protein and was the mean of three separate assays on the same enzyme sample (technical reps).
# To test the hypothesis, the four amino acids of sorghum TDO corresponding to amino acid positions 230, 301, 332, and 335 in rice TDO were replaced with those of rice TDO. The corn, rice, sorghum, and the modified sorghum TDO genes were cloned into a pET28 vector for E. coli expression with His6 tag in the N-terminus. Subsequently, the proteins were expressed and purified by affinity chromatography. BL21-CodonPlus (DE3)-RIPL E. coli cells (Stratagene) were used for expression. Cells transformed with expression vector were grown in autoinduction media (AIM) supplemented with 100 μg mL-1 kanamycin and 34 μg mL-1 chloramphenicol.
# TDO proteins used in this study were expressed in AIM cells using an auto-induction system as described by Studier (2014). Briefly, the recombinant cultures were grown at 37° C. for 3 hours and then 20° C. for one or two days. Cells were harvested by centrifugation and frozen at −80° C. The pellet was resuspended in lysis buffer (Bper and Yper [Pierce] with ratio 3 to 1, 25 mM Tris-HCl, 300 mM NaCl, 10 mM imidazole, pH 8.0). 150 mM ferric ammonium citrate (1000X) was added to the lysate to a final concentration of 150 µM and incubated on ice for 20 minutes. The lysate was centrifuged to clarify the supernatant. Clear supernatant was loaded onto a 5 mL Ni column connected to AKTA Express (GE Healthcare). […] Protein concentrations were determined spectrophotometrically based on their calculated molar absorption extinction coefficients at 280 nm.
# TDO activity was measured by the second hydroxylation of mesotrione. For routine activity measurements of TDO and determining the kinetic properties of the second hydroxylation, the continuous change in A330, which is specific to the second hydroxylation and subsequent non-enzymatic water removal (i.e. the conversion of hydroxy-mesotrione to oxy-mesotrione), was monitored. […] The reaction proceeded until the maximum A330 was obtained (usually 20-120 minutes depending upon the concentration of mesotrione) and the linear portion of the curve was determined by visual inspection. […]
# For the activity calculation, aliquots of the reaction were removed at various time points during the reaction and heated at 95° C. to halt the reaction. The reaction mixtures were analyzed by HPLC and mass spectrophotometry. By product conversation followed by peak integration on HPLC, a linear plot was obtained and the extinction co-efficient delta between the substrate (mesotrione) and the second product (oxy-mesotrione) was obtained according to the equation ΔA330=(εp-εs)*bΔp where ΔA330 is the change of absorbance at 330 nm and b is the light path.
molecule,measurement,setting,value
"Os.TDO: TDO from Oryza sativa (HIS1), SEQ ID NO:2, polynucleotide codon optimized for dicot expression (protein, listed as Oryza sativa) MADESWRAPAIVQELAAAGVEEPPSRYLLREKDRSDVKLVAAELPEPLPVVDLSRLDGAEEATKLRVALQNWGFFLLTNHGVEASLMDSVMNLSREFFNQPIERKQKFSNLIDGKNFQIQGYGTDRVVTQDQILDWSDRLHLRVEPKEEQDLAFWPDHPESFRDVLNKYASGTKRIRDDIIQAMAKLLELDEDYFLDRLNEAPAFARFNYYPPCPRPDLVFGIRPHSDGTLLTILLVDKDVSGLQVQRDGKWSNVEATPHTLLINLGDTMEVMCNGIFRSPVHRVVTNAEKERISLAMLYSVNDEKDIEPAAGLLDENRPARYRKVSVEEFRAGIFGKFSRGERYIDSLRI",tolerance to sulcotrione,"[1]; 2X commercial rate sulcotrione (Sulcogan, 660 g a.i./ha), event-125",provided tolerance
same,tolerance to tembotrione,"[1]; 2X commercial rate tembotrione (Laudis, 184 g a.i./ha), event-125",provided tolerance
same,injury rate,[1]; mesotrione 16X (1680 g a.i./ha),below 15%
same,injury rate,"[1]; mesotrione at 8X or lower rate (1X=105 g a.i./ha), three transgenic events",lower than 10%
same,tolerance to mesotrione,[1]; up to 16X of commercial application rate (1X=105 g a.i./ha),excellent tolerance
same,specific activity of the second hydroxylation,[2],highest activity
